According to publication PMC3770571:

Columns and labels:
[1] = molecular target: endogenous LANA of KSHV infected PEL cells (KSHV (HHV8) (endogenous in BCBL1, JSC1, BC3)) (UniProt Q9QR71); assay: co-IP
[2] = molecular target: endogenous LANA of KSHV infected PEL cells (KSHV (HHV8) (endogenous in BCBL1, JSC1, BC3)) (UniProt Q9QR71); assay: co-IP; lysate of 30 million BCBL1 cells treated with 2 U micrococcal nuclease (mononucleosomes), anti-LANA IP

Sequence of UniProt Q9QR71 (Q9QR71 whole entry): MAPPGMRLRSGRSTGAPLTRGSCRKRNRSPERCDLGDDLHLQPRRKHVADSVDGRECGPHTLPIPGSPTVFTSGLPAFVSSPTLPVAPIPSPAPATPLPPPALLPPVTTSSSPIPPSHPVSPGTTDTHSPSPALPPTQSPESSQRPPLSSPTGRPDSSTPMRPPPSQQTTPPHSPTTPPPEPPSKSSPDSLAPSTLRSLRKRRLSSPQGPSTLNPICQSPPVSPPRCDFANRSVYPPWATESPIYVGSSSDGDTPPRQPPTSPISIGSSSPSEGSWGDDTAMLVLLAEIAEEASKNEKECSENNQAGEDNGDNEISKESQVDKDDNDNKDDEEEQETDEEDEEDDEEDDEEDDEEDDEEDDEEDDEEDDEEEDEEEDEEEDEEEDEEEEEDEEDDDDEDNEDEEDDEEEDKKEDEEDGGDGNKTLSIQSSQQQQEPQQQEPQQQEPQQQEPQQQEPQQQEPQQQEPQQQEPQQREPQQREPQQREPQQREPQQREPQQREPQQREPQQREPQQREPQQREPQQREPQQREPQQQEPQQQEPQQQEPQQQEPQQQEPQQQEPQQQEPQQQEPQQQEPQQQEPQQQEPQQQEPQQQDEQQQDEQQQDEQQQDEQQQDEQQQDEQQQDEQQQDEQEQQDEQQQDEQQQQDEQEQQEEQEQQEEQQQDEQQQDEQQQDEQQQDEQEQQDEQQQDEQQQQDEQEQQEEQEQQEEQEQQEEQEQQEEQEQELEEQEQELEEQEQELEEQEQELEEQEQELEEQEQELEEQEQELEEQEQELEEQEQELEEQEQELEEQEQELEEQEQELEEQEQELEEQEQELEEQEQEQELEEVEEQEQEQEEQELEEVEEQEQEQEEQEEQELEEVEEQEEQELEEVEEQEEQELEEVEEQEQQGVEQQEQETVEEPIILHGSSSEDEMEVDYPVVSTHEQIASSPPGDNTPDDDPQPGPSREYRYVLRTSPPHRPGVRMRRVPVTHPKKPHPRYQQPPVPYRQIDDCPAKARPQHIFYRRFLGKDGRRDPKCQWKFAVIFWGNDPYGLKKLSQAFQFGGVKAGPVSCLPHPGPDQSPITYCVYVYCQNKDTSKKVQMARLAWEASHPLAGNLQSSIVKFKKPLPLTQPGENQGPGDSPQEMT

Which relative density of the co-precipitated band (input set at 10%) [1] does the source give for “endogenous histone H1 of human cells (from UniProt P16403 1-213) (natural protein)” here?
The relative density of the co-precipitated band (input set at 10%) was 30%.

What about the relative density of the co-precipitated band (input set at 10%) [2] of the same substance?
Its relative density of the co-precipitated band (input set at 10%) is 10%.
